Biological target: the molecule itself
Experiment: cryo-EM structure

B1: human XPR1 (Xenotropic and polytropic retrovirus receptor 1) (natural protein, UniProt Q9UBH6-1 1-696, looked up)
chain: MKFAEHLSAHITPEWRKQYIQYEAFKDMLYSAQDQAPSVEVTDEDTVKRYFAKFEEKFFQTCEKELAKINTFYSEKLAEAQRRFATLQNELQSSLDAQKESTGVTTLRQRRKPVFHLSHEERVQHRNIKDLKLAFSEFYLSLILLQNYQNLNFTGFRKILKKHDKILETSRGADWRVAHVEVAPFYTCKKINQLISETEAVVTNELEDGDRQKAMKRLRVPPLGAAQPAPAWTTFRVGLFCGIFIVLNITLVLAAVFKLETDRSIWPLIRIYRGGFLLIEFLFLLGINTYGWRQAGVNHVLIFELNPRSNLSHQHLFEIAGFLGILWCLSLLACFFAPISVIPTYVYPLALYGFMVFFLINPTKTFYYKSRFWLLKLLFRVFTAPFHKVGFADFWLADQLNSLSVILMDLEYMICFYSLELKWDESKGLLPNNSEESGICHKYTYGVRAIVQCIPAWLRFIQCLRRYRDTKRAFPHLVNAGKYSTTFFMVTFAALYSTHKERGHSDTMVFFYLWIVFYIISSCYTLIWDLKMDWGLFDKNAGENTFLREEIVYPQKAYYYCAIIEDVILRFAWTIQISITSTTLLPHSGDIIATVFAPLEVFRRFVWNFFRLENEHLNNCGEFRAVRDISVAPLNADDQTLLEQMMDQDDGVRNRQKNRSWKYNQSISLRRPRLASQSKARDTKVLIEDTDDEANT
With B1 the “stoichiometry N” value was 2.
